From the nanobody polyreactivity screen of Harvey et al. (2022)

Assay: yeast display, Sf9 membrane polyspecificity reagent, FACS + sequencing; frameworks hold sequencing errors
Summary of the method: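 Polyreactivity labels are assigned by the sorting gate from which each nanobody was recovered. The gates were low and high (top ~1%), set on anti-HA fluorescence for expression and streptavidin fluorescence for reagent binding. Before sorting, galactose-induced (36–48 hours) yeast display cells were stained for 1 hour at 4 °C with 10% biotinylated, detergent-solubilized Sf9 membrane reagent.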

| Sequence | polyreactivity (PSR sort gate) |
| --- | --- |
| QVQLVESGGGLVQAGGSLRLSCAASGSIFKVYAMGWYRQAPGKERELVASITSGGRTYADSVKGRFTISRDNAKNTVYLQMNSLKPEDTAVYYCSARSRSKFYYWGQGTQLTVSS | high polyreactivity |
| QVQLVESGGGLVQAGGSLRLSCAASGSIFKWNAMGWYRQAPGKERELVASITRSGGSTYYADSVKGRFTISRDNAKNTVYLQMNSLKPEDTAVYYCARSYGWYRWAGYDYWGQGTQVTVSS | high polyreactivity |
| QVQLVESGGGLVQAGGSLRLSCAASGSIFKWYAMGWYRQAPGKERELVAAITRGGSTNYADSVKGRFTISRDNAKNTVYLQMNSLKPEDTAVYYCNAVYTYRSGFGYWGQGTQVTVSS | low polyreactivity |
| QVQLVESGGGLVQAGGSLRLSCAASGSIFKYNPMGWYRQAPGKEMELVATISGGGRTYYADSVKGRFTISRDNAKNTVYLQMNSLKPEDTAVYYCAARKRGTFTYDYWGQGTQVTVSS | high polyreactivity |
| QVQLVESGGGLVQAGGSLRLSCAASGSIFKYYAMGWYRQAPGKERELDAAISYSGGRTYYADSVKGRFTISRDNAKNTVYLQMNSLKPEDTAVYYCATDYYYRSAKFLGDYWGQGTQVTVSS | high polyreactivity |
| QVQLVESGGGLVQAGGSLRLSCAASGSIFKYYAMGWYRQAPGKERELVAAISVRGSRTYYADSVKGRFTISRDNAKNTVYLQMNSLKPEDTAVYYCAADGGYIPPYGYDYWGQGTQVTVSS | high polyreactivity |
| QVQLVESGGGLVQAGGSLRLSCAASGSIFKYYAMGWYRQAPGTERELVAAISTGGTTNYADSVKGRFTISRDNAKNTVYLQMNSLKPEDTAVYYCNRDYLVRSRYKYYYWGQGTQVTVSS | low polyreactivity |
| QVQLVESGGGLVQAGGSLRLSCAASGSIFKYYTMGWYRQAPGKERELVARISTRGDSTYYADSVKGRFTISRDNAKNTVYLQMNSLKPEDTAVYYCNARPGSRRSSTWGMDYWGQGTQVTVSS | high polyreactivity |
| QVQLVESGGGLVQAGGSLRLSCAASGSIFLASAMGWYRQAPGKERELVAAITAGTGSTYYADSVKGRFTISRDNAKNTVYLQMNSLKPEDTAVYYCAKAVSLFRGPFSSFDYWGQGTQVTVSS | low polyreactivity |
| QVQLVESGGGLVQAGGSLRLSCAASGSIFLAYAMGWYRQAPGKEREFVAAISSRGGSTYYADSVKGRFTISRDNAKNTVYLQMNSLKPEDTAVYYCARYKYTRQTRVEYGYWGQGTQVTVSS | high polyreactivity |
| QVQLVESGGGLVQAGGSLRLSCAASGSIFLAYAMGWYRQAPGKERELVADISYSGGRTYYADSVMGRFTISRDNAKNTVYLQMNSLIPEDTAVYYCAADPWHDTDQHGNDYWGQGSQVTVSS | low polyreactivity |
| QVQLVESGGGLVQAGGSLRLSCAASGSIFLAYAMGWYRQAPGKERELVASTYYADSVKGRFTISRDNAKNTVYLQMNSLKPEDTAVYYCAADRIYSIYVSPYYSFGYWGQGTQVTVSS | low polyreactivity |
| QVQLVESGGGLVQAGGSLRLSCAASGSIFLAYDMGWYRQAPGKERELVAAISYTGGSTNYADSVKGRFTISRDNAKNTVYLQMNSLKPEDTAVYYCNTAGDLWIDYGYWGQGTQVTVSS | low polyreactivity |
| QVQLVESGGGLVQAGGSLRLSCAASGSIFLAYPMGWYRQAPGKEREFVAAISFSDGSTYYADSVKGRFTISRDNAKNTVYLQMNSLKPEDTAVYYCNKRASPDDYDYWGQGTQVTVSS | low polyreactivity |
| QVQLVESGGGLVQAGGSLRLSCAASGSIFLDNAMGWYRPAPGKERELVAAISRRGGTTYYADSVKGRFTISRDNAKNTVYLQLNSLIPEDTAVYYCAARYPGGKYYSYTYNYWGQGTQVTVSS | high polyreactivity |
| QVQLVESGGGLVQAGGSLRLSCAASGSIFLDYAMGWYRQAPGKERELVDGITISGGSTYYADSVKGRFTISRDNAKNTVYLQMNSLKPEYTAVYYCAKVAPRSSSSQEYYYWGQGTQVTVSS | low polyreactivity |
| QVQLVESGGGLVQAGGSLRLSCAASGSIFLGNTMGWYRQAPGKERELVAAITIGGSTHYADSVKGRFTISRDNAKNTVYLQMNSLKPDDTAVYYCAKEGWPFGIDFDYWGQGTQVTVSS | low polyreactivity |
| QVQLVESGGGLVQAGGSLRLSCAASGSIFLGYAMGWYRQAPGKERELVADIDWRDGSTYYADSVKGRFTISRDNAKTTVYLQMNSLKPEDTAVYYCAVYDNLQWDFGIYYEYDYWGQGTQVTVSS | high polyreactivity |
| QVQLVESGGGLVQAGGSLRLSCAASGSIFLHNAMGWYRQAPGKERELVAVITSRGGSTYYADSVKGRFTISRDNAKNTVYLQMNSLKPEDTAVYYCAADSRQSDYYYQPTKIDYWGQGTQVTVSS | low polyreactivity |
| QVQLVESGGGLVQAGGSLRLSCAASGSIFLHNAMGWYRQAPGKERVLVAVITSRGGSTYYADSVKGRFTISRDNAKNPVYLQMNSLKPEDTAVYYCAAPAYHKRTSRGDYWGQGTQVTVSS | low polyreactivity |
| QVQLVESGGGLVQAGGSLRLSCAASGSIFLINAMGWYRQAPGKERELVAAISRSGGRTYYADSVKGRFTISRDNAKNTVYLEMNSLKPEDTAVYYCAVPSIYYAVRAYDYWGQGTQVTVSS | high polyreactivity |
| QVQLVESGGGLVQAGGSLRLSCAASGSIFLINAMGWYRQAPGKETELVAAISRSGGRTYYADSVKGRFTISRDNAKNTVYLQMNSLKPEDTAVYYCAVPSIYYAGRAYDYWGQGTQVTVSS | high polyreactivity |

| Sequence | polyreactivity (PSR sort gate) |
| --- | --- |
| QVQLVESGGGLVQAGGSLRLSCAASGSIFLINAMGWYRQAPGTERELVAAISRRGGSTYYADSVKGRFTISRDNAKNTVYLQMNSLKPEDTAVYYCAATGHGRVYFGGGHWGQGTQVTVSS | high polyreactivity |
| QVQLVESGGGLVQAGGSLRLSCAASGSIFLIYAMGSYRQAPGKERELVATINRGDNTYYADSVKGRFTISRDNAKNTVYLQMNSLKPEDTAVYYCAADVPWGWWDSDFSDNYYWGQGTQVTVSS | low polyreactivity |
| QVQLVESGGGLVQAGGSLRLSCAASGSIFLIYAMGWYRQAPGKERELVAAISSGGSTYYADSVKGRFTISRDNAKNTVYLQMNSLKPEDTAVYYCATYSTSVAFHLYYWGQGTQVTVSS | low polyreactivity |
| QVQLVESGGGLVQAGGSLRLSCAASGSIFLIYAMGWYRQGPGKERELVAGINWSGSRTYYADSVKGRFTISRDNAKNTVYLQMNSLKPEDTAVYDCAARVRRPLYSAYDSWGQGTQVTVSS | low polyreactivity |
| QVQLVESGGGLVQAGGSLRLSCAASGSIFLKYAMCLYRQAPGKERELVAAMSFSGGGTYYADSVKGRFTISRDNAKNTVYLQMNSLKPEDTAVYYCAADKIVYVRSNWYWGFDYWGQGTQVTVSS | low polyreactivity |
| QVQLVESGGGLVQAGGSLRLSCAASGSIFLKYAMGWYRQAPGKERELVAAISSRGGSTYYADSVKGRFTISRDNAKNTVYLQMNSLKPEDTAVYYCAKVRQTYFGWYSTTRDYWGQGTQVTVSS | high polyreactivity |
| QVQLVESGGGLVQAGGSLRLSCAASGSIFLLYAMGWYRQAPGKERELVAAMSRGGSTYADSVKGRFTISRDNAKNTVYLQMNSLKPEVTAVYYCAASDQYRWYVHRWEDPFYYWGQGTQVTVSS | low polyreactivity |
| QVQLVESGGGLVQAGGSLRLSCAASGSIFLNYAMGWYRQAPGKERELVAAISYRVGRTYYADSVKGRFTISRDNAKNTVYLQMNSLKPVDTAVYYCAADSRSPGNDYWGQGTQVTVSS | high polyreactivity |
| QVQLVESGGGLVQAGGSLRLSCAASGSIFLPYAMGWNRQAPGKERELVAAITWSGGRTYYADSVKGRFTISRDNAKNTVYLQMNSLKPEDTAVYYCAADDSEGFDYWGQGTQVTVSS | high polyreactivity |
| QVQLVESGGGLVQAGGSLRLSCAASGSIFLRNAMGWYRQAPGKERELVAAITWDSGDTYYADSVQGRFTISRDNAKNTVYLQMNSLKPEDTAVYYCNTLGLSSDWGQGTQVTVSS | low polyreactivity |
| QVQLVESGGGLVQAGGSLRLSCAASGSIFLRYAMGWSRQARGKERELVAAITSSGRTNYADPVKGRFTISRDNAKNTVYLQMNSLKPEDTAVYYCAAVSYRQGVYRRNRYYYWGQGTQVTVSS | high polyreactivity |
| QVQLVESGGGLVQAGGSLRLSCAASGSIFLSNAMGWYRQSPGKERELVAAISSSGGSTYYADSVKGRFTISRDNAKNTVYLQMNSLKPEDTAVYYCAATGYGFRGRFDYWGQGTQVTVSS | low polyreactivity |
| QVQLVESGGGLVQAGGSLRLSCAASGSIFLSYAMGSYREAPGKERELVATITAGGGSTNYADSVKGRFTISRDNAKNTVYLQMNSLKPEDTAVYYCAAKRLSWHGYGYWGQGTQVTVSS | low polyreactivity |
| QVQLVESGGGLVQAGGSLRLSCAASGSIFLSYDMGWYRQAPGKERELVAAITQSGGSTYYADSVKGRFTISRDNAKNTVYLQINSLIPEDTAVYYCAADYGYLPQETYPTYGYYYWGQGTQVTVSS | low polyreactivity |
| QVQLVESGGGLVQAGGSLRLSCAASGSIFLTNAMGRYRQAPGKERELVAAIRSGGSTSYADSVKGRLTISRDNAKNTVYLQMNSLKPEDTAVYDCNAESDSRNYKVHPSGIYEYWGQGTQVTVSS | low polyreactivity |
| QVQLVESGGGLVQAGGSLRLSCAASGSIFLTYDMGWYRQAPGKERELVAAITGSGDSTYYADSVKGRFTISRDNAKNTVYLQMNSLKPEDTAVYYCNADGPSTPWVDYGYWGQGTQVTVSS | low polyreactivity |
| QVQLVESGGGLVQAGGSLRLSCAASGSIFLVNAMGWYRQAPGKERELVASITWRGGRTYYADSVKGRFTISRDNAKNTVYLEMNSLKPEDTAVYYCAARNYRTGERLRYDYWGQGTQVTVSS | low polyreactivity |
| QVQLVESGGGLVQAGGSLRLSCAASGSIFLVNAMGWYRQAPGKVRELVAAITYGGDSTYYADSVKGRFTISRDHAQNTVYLQMNSLKPEDTAVYYCAADAWVGWHDEYDYWGQGTQVTVSA | low polyreactivity |
| QVQLVESGGGLVQAGGSLRLSCAASGSIFLVNARGWYRQAPAKERELVASITWRGGRTYYADSVKGRFTISRDNAKNTDYLQMNSLKPEDTAVYYCAARNYRTGERLRYDYWGQGTQVTVSS | low polyreactivity |
| QVQLVESGGGLVQAGGSLRLSCAASGSIFLVYAMGWYRQAPGKERELVAASDWSDTDTYYADSVKGRFTISRDNAKNTFYLQMNSLKPEDTAVYYCAADHVGVDFEYWGQGTQVTVSS | low polyreactivity |
| QVQLVESGGGLVQAGGSLRLSCAASGSIFLVYGMGWYRPAPGKERELVAAISRTGGRTYYADSVKGRFTISRDNSKNTVYLQMNSLKPEDTAVYYCAAAAQRPEGYYWGQGTQVTVSS | high polyreactivity |
